Earlier results, collected in article PMC4746476.

Biological target: CCL21 (Homo sapiens) (UniProt O00585)
Sequence of UniProt O00585 (O00585 24-134): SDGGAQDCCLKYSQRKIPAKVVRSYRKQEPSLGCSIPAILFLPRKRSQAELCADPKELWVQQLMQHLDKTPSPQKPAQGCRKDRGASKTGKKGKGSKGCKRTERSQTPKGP

Kd: 10 nM
Substance: CCR7 (from UniProt P32248)
